Changes are numbered by the printed parent chain. Names may count otherwise.
B1: WT core mouse RAG1 (aa 384-1008), P15919 384-1008 (enzyme)
chain: VHINKGGRPRQHLLSLTRRAQKHRLRELKIQVKEFADKEEGGDVKAVCLTLFLLALRARNEHRQADELEAIMQGRGSGLQPAVCLAIRVNTFLSCSQYHKMYRTVKAITGRQIFQPLHALRNAEKVLLPGYHPFEWQPPLKNVSSRTDVGIIDGLSGLASSVDEYPVDTIAKRFRYDSALVSALMDMEEDILEGMRSQDLDDYLNGPFTVVVKESCDGMGDVSEKHGSGPAVPEKAVRFSFTVMRITIEHGSQNVKVFEEPKPNSELCCKPLCLMLADESDHETLTAILSPLIAEREAMKSSELTLEMGGIPRTFKFIFRGTGYDEKLVREVEGLEASGSVYICTLCDTTRLEASQNLVFHSITRSHAENLQRYEVWRSNPYHESVEELRDRVKGVSAKPFIETVPSIDALHCDIGNAAEFYKIFQLEIGEVYKHPNASKEERKRWQATLDKHLRKRMNLKPIMRMNGNFARKLMTQETVDAVCELIPSEERHEALRELMDLYLKMKPVWRSSCPAKECPESLCQYSFNSQRFAELLSTKFKYRYEGKITNYFHKTLAHVPEIIERDGSIGAWASEGNESGNKLFRRFRKMNARQSKCYEMEDVLKHHWLYTSKYLQKFMNAHNA
B2: mouse RAG2 (aa 1-520), degradation resistant T490A mutant (natural protein, UniProt P21784 1-520, looked up)
chain: MSLQMVTVGHNIALIQPGFSLMNFDGQVFFFGQKGWPKRSCPTGVFHFDIKQNHLKLKPAIFSKDSCYLPPLRYPATCSYKGSIDSDKHQYIIHGGKTPNNELSDKIYIMSVACKNNKKVTFRCTEKDLVGDVPEPRYGHSIDVVYSRGKSMGVLFGGRSYMPSTQRTTEKWNSVADCLPHVFLIDFEFGCATSYILPELQDGLSFHVSIARNDTVYILGGHSLASNIRPANLYRIRVDLPLGTPAVNCTVLPGGISVSSAILTQTNNDEFVIVGGYQLENQKRMVCSLVSLGDNTIEISEMETPDWTSDIKHSKIWFGSNMGNGTIFLGIPGDNKQAMSEAFYFYTLRCSEEDLSEDQKIVSNSQTSTEDPGDSTPFEDSEEFCFSAEATSFDGDDEFDTYNEDDEDDESVTGYWITCCPTCDVDINTWVPFYSTELNKPAMIYCSHGDGHWVHAQCMDLEERTLIHLSEGSNKYYCNEHVQIARALQAPKRNPPLQKPPMKSLHKKGSGKVLTPAKKS
B3: mouse RAG1 (aa 265-1040), catalytically inactive E962Q mutant (enzyme, UniProt P15919 265-1040, looked up)
chain: NCSKIHLSTKLLAVDFPAHFVKSISCQICEHILADPVETSCKHLFCRICILRCLKVMGSYCPSCRYPCFPTDLESPVKSFLNILNSLMVKCPAQDCNEEVSLEKYNHHVSSHKESKETLVHINKGGRPRQHLLSLTRRAQKHRLRELKIQVKEFADKEEGGDVKAVCLTLFLLALRARNEHRQADELEAIMQGRGSGLQPAVCLAIRVNTFLSCSQYHKMYRTVKAITGRQIFQPLHALRNAEKVLLPGYHPFEWQPPLKNVSSRTDVGIIDGLSGLASSVDEYPVDTIAKRFRYDSALVSALMDMEEDILEGMRSQDLDDYLNGPFTVVVKESCDGMGDVSEKHGSGPAVPEKAVRFSFTVMRITIEHGSQNVKVFEEPKPNSELCCKPLCLMLADESDHETLTAILSPLIAEREAMKSSELTLEMGGIPRTFKFIFRGTGYDEKLVREVEGLEASGSVYICTLCDTTRLEASQNLVFHSITRSHAENLQRYEVWRSNPYHESVEELRDRVKGVSAKPFIETVPSIDALHCDIGNAAEFYKIFQLEIGEVYKHPNASKEERKRWQATLDKHLRKRMNLKPIMRMNGNFARKLMTQETVDAVCELIPSEERHEALRELMDLYLKMKPVWRSSCPAKECPESLCQYSFNSQRFAELLSTKFKYRYEGKITNYFHKTLAHVPEIIERDGSIGAWASEGNQSGNKLFRRFRKMNARQSKCYEMEDVLKHHWLYTSKYLQKFMNAHNALKSSGFTMNSKETLGDPLGIEDSLESQDSMEF
B4: mouse RAG1 (aa 265-1040), wild type (enzyme, UniProt P15919 265-1040, looked up)
chain: B3 chain with Q698E
B5: WT core mouse RAG2 (aa 1-359) (domain or fragment, UniProt P21784 1-359, looked up)
chain: MSLQMVTVGHNIALIQPGFSLMNFDGQVFFFGQKGWPKRSCPTGVFHFDIKQNHLKLKPAIFSKDSCYLPPLRYPATCSYKGSIDSDKHQYIIHGGKTPNNELSDKIYIMSVACKNNKKVTFRCTEKDLVGDVPEPRYGHSIDVVYSRGKSMGVLFGGRSYMPSTQRTTEKWNSVADCLPHVFLIDFEFGCATSYILPELQDGLSFHVSIARNDTVYILGGHSLASNIRPANLYRIRVDLPLGTPAVNCTVLPGGISVSSAILTQTNNDEFVIVGGYQLENQKRMVCSLVSLGDNTIEISEMETPDWTSDIKHSKIWFGSNMGNGTIFLGIPGDNKQAMSEAFYFYTLRCSEEDLSEDQ

Columns and labels:
[1] = biological target: T1, WT core mouse RAG1 (aa 384-1008) (mouse), P15919; test: crystal structure; conditions: remark: other sources report otherwise
T1 chain: B1 chain

[2] = biological target: B3; test: cryo-EM structure
[3] = biological target: the molecule itself; test: cryo-EM structure
[4] = biological target: T2, WT core mouse RAG1 (aa 384-1008) (mouse, UniProt P15919 384-1008); test: crystal structure
T2 sequence (looked up): B1 chain

B1
stoichiometry N [1]: 2

B2
binding result [2]: binds

B3
binding result [3]: binds

B4
binding result [3]: binds

B5
binding result [4]: binds
